Measured values published in the Immune Epitope Database (IEDB).

Key:
Test in all cases: IEDB peptide-MHC binding, purified MHC/competitive/radioactivity; filed as Kd, often an IC50 or EC50 that approximates it; ≥ and ≤ were set here for values at or beyond the usual limits of such assays
HLA-A*03:01 = target: HLA-A*03:01
HLA-A*11:01 = target: HLA-A*11:01
HLA-A*31:01 = target: HLA-A*31:01
HLA-A*33:01 = target: HLA-A*33:01
HLA-A*68:01 = target: HLA-A*68:01
[1] = source organism: Vaccinia virus WR
[2] = source organism: SARS coronavirus Tor2
[3] = source organism: Mammarenavirus whitewaterense
[4] = source organism: Dengue virus 4 Philippines/H241/1956
[5] = source organism: Lymphocytic choriomeningitis virus (strain Armstrong)
[6] = source organism: Dengue virus 1 Brazil/97-11/1997
[7] = source organism: Mammarenavirus guanaritoense
[8] = source organism: Dengue virus 2 Jamaica/1409/1983
[9] = source organism: Dengue virus 4 Dominica/814669/1981
[10] = source organism: Dengue virus 3 Martinique/1243/1999
[11] = source organism: Dengue virus 3 Singapore/8120/1995

Row | Sequence | Kd (HLA-A*03:01; [1]) [nM] | Kd (HLA-A*11:01; [1]) [nM] | Kd (HLA-A*31:01; [1]) [nM] | Kd (HLA-A*33:01; [1]) [nM] | Kd (HLA-A*68:01; [1]) [nM] | further results
1 | VFSFWLLCK | 281 | 11.9 | 872 | 4130 | 298 | 
2 | SSIVRQLFK |  |  |  |  |  | Kd (HLA-A*03:01; [2]): 58.8 nM; Kd (HLA-A*11:01; [2]): 73.2 nM; Kd (HLA-A*31:01; [2]): 2000 nM; Kd (HLA-A*33:01; [2]): ≥ 77700 nM; Kd (HLA-A*68:01; [2]): 392 nM
3 | ELALTDVEKR | ≥ 68800 | ≥ 69800 | 11800 | 16800 | 149 | 
4 | TTFDAEYCR |  |  |  |  |  | Kd (HLA-A*03:01; [2]): ≥ 33800 nM; Kd (HLA-A*11:01; [2]): 76.1 nM; Kd (HLA-A*31:01; [2]): 103 nM; Kd (HLA-A*33:01; [2]): 111 nM; Kd (HLA-A*68:01; [2]): 2.05 nM
5 | KWMLISSELK |  |  |  |  |  | Kd (HLA-A*03:01; [3]): 19.9 nM; Kd (HLA-A*11:01; [3]): 248 nM; Kd (HLA-A*31:01; [3]): 127 nM; Kd (HLA-A*33:01; [3]): 10500 nM; Kd (HLA-A*68:01; [3]): 891 nM
6 | SSGFYFEIAR | ≥ 21300 | 90.6 | 14.2 | 179 | 13.3 | 
7 | AAYFVGYLK |  |  |  |  |  | Kd (HLA-A*03:01; [2]): 3.9 nM; Kd (HLA-A*11:01; [2]): 3.19 nM; Kd (HLA-A*31:01; [2]): 178 nM; Kd (HLA-A*33:01; [2]): 5550 nM; Kd (HLA-A*68:01; [2]): 3.19 nM
8 | SIKIKQDVR | 10800 | 5370 | 313 | 4450 | 316 | 
9 | WYMWQVKTQR |  |  |  |  |  | Kd (HLA-A*33:01; [4]): 2.54 nM
10 | AVNTPVSMTY | 71.5 | 20.7 | 7440 | ≥ 70000 | 4660 | 
11 | CIPSRSKMLK | 1.09 | 4.27 | 64.5 | 63.2 | 27.9 | 
12 | KFLELKRGIY | 1240 | ≥ 69800 | 22.6 | ≥ 70000 | 10900 | 
13 | VVKWKRDEH |  |  |  |  |  | Kd (HLA-A*03:01; [5]): ≥ 37200 nM; Kd (HLA-A*11:01; [5]): 187 nM; Kd (HLA-A*31:01; [5]): ≥ 34800 nM; Kd (HLA-A*33:01; [5]): ≥ 77700 nM; Kd (HLA-A*68:01; [5]): ≥ 77600 nM
14 | TIERIFNAK | 3190 | 1.16 | 240 | 1980 | 19.8 | 
15 | VLDIISSKQY | 601 | 9680 | 518 | 1430 | 1390 | 
16 | DVFHLYLQY |  |  |  |  |  | Kd (HLA-A*03:01; [2]): 5470 nM; Kd (HLA-A*11:01; [2]): 10600 nM; Kd (HLA-A*31:01; [2]): 4240 nM; Kd (HLA-A*33:01; [2]): 5450 nM; Kd (HLA-A*68:01; [2]): 188 nM
17 | NFSIIELPY | 716 | 1070 | 6320 | ≥ 35000 | 3440 | 
18 | VLMHPDFCK | 8.68 | 4.33 | 227 | 1380 | 259 | 
19 | VSSLVKNVNK | 172 | 40 | 1180 | ≥ 50000 | 3360 | 
20 | FFVFIHMVR | 0.874 | 3780 | 1.08 | 0.46 | 0.0241 | 
21 | GSSADLSLEK |  |  |  |  |  | Kd (HLA-A*11:01; [6]): 76 nM
22 | CICYGSYSLY | 0.434 | 341 | 4390 | 2040 | 1580 | 

Row | Sequence | Kd (HLA-A*03:01; [1]) [nM] | Kd (HLA-A*11:01; [1]) [nM] | Kd (HLA-A*31:01; [1]) [nM] | Kd (HLA-A*33:01; [1]) [nM] | Kd (HLA-A*68:01; [1]) [nM] | further results
23 | QALNSVANR | ≥ 20200 | 845 | 12 | 104 | 55.7 | 
24 | EMGANFRAGR |  |  |  |  |  | Kd (HLA-A*31:01; [4]): 67.3 nM; Kd (HLA-A*33:01; [4]): 7.51 nM
25 | FESLFKCLSH |  |  |  |  |  | Kd (HLA-A*03:01; [7]): 5530 nM; Kd (HLA-A*31:01; [7]): 608 nM; Kd (HLA-A*33:01; [7]): 2750 nM
26 | MLPESDLDK | 5640 | 2080 | ≥ 36200 | ≥ 73200 | 1240 | 
27 | LFKNVRLLK | 233 | 885 | 185 | 1010 | 2090 | 
28 | SVDIETAIR | ≥ 78000 | 53 | 1800 | 17500 | 187 | 
29 | SVVNARLRAK |  |  |  |  |  | Kd (HLA-A*03:01; [2]): 65.5 nM; Kd (HLA-A*11:01; [2]): 89.9 nM; Kd (HLA-A*31:01; [2]): 1370 nM; Kd (HLA-A*33:01; [2]): ≥ 33700 nM; Kd (HLA-A*68:01; [2]): 250 nM
30 | VVVKDDPDHY | ≥ 28000 | ≥ 21600 | ≥ 70000 | ≥ 70000 | ≥ 70200 | 
31 | DAIDGEYRLR |  |  |  |  |  | Kd (HLA-A*33:01; [8]): 246 nM; Kd (HLA-A*68:01; [8]): 17.1 nM
32 | ALTPPVSDLK |  |  |  |  |  | Kd (HLA-A*03:01; [9]): 86.9 nM
33 | DTMTYKCPR |  |  |  |  |  | Kd (HLA-A*31:01; [6]): 4880 nM; Kd (HLA-A*33:01; [6]): 6.64 nM; Kd (HLA-A*68:01; [6]): 67.1 nM
34 | ITENKIWGR |  |  |  |  |  | Kd (HLA-A*33:01; source organism: Dengue virus 1 Nauru/West Pac/1974): 141 nM
35 | VMAFHLSTR |  |  |  |  |  | Kd (HLA-A*31:01; source organism: Dengue virus 4 Thailand/0348/1991): 9.39 nM
36 | ATTVITPMLR |  |  |  |  |  | Kd (HLA-A*11:01; [10]): 222 nM; Kd (HLA-A*31:01; [10]): 163 nM; Kd (HLA-A*68:01; [10]): 47.2 nM
37 | GYVLGIFLR |  |  |  |  |  | Kd (HLA-A*31:01; [4]): 15.7 nM; Kd (HLA-A*33:01; [4]): 39.8 nM
38 | AIFKLTYQNK |  |  |  |  |  | Kd (HLA-A*03:01; [8]): 41.4 nM; Kd (HLA-A*11:01; [8]): 57.5 nM
39 | AIKILIGFRK |  |  |  |  |  | Kd (HLA-A*03:01; [9]): 215 nM; Kd (HLA-A*11:01; [9]): 432 nM
40 | ATLAFHLTSR |  |  |  |  |  | Kd (HLA-A*31:01; [11]): 2.69 nM; Kd (HLA-A*68:01; [11]): 50.9 nM
41 | NIVMLHTTER |  |  |  |  |  | Kd (HLA-A*33:01; [4]): 83.8 nM; Kd (HLA-A*68:01; [4]): 16.9 nM
42 | GIFLFLMSGK |  |  |  |  |  | Kd (HLA-A*03:01; [8]): 85.5 nM; Kd (HLA-A*11:01; [8]): 549 nM
43 | VTRLENLMWK |  |  |  |  |  | Kd (HLA-A*11:01; [8]): 128 nM
44 | KKSKAINVLR |  |  |  |  |  | Kd (HLA-A*31:01; [8]): 163 nM
